Substitutions are numbered along the chain they refer to. In names and notes the source's numbering stands.
T1: EsCas13d, nuclease-dead (Eubacterium siraeum, UniProt B0MS50, R295A;H300A;R849A;H854A)
T1 sequence: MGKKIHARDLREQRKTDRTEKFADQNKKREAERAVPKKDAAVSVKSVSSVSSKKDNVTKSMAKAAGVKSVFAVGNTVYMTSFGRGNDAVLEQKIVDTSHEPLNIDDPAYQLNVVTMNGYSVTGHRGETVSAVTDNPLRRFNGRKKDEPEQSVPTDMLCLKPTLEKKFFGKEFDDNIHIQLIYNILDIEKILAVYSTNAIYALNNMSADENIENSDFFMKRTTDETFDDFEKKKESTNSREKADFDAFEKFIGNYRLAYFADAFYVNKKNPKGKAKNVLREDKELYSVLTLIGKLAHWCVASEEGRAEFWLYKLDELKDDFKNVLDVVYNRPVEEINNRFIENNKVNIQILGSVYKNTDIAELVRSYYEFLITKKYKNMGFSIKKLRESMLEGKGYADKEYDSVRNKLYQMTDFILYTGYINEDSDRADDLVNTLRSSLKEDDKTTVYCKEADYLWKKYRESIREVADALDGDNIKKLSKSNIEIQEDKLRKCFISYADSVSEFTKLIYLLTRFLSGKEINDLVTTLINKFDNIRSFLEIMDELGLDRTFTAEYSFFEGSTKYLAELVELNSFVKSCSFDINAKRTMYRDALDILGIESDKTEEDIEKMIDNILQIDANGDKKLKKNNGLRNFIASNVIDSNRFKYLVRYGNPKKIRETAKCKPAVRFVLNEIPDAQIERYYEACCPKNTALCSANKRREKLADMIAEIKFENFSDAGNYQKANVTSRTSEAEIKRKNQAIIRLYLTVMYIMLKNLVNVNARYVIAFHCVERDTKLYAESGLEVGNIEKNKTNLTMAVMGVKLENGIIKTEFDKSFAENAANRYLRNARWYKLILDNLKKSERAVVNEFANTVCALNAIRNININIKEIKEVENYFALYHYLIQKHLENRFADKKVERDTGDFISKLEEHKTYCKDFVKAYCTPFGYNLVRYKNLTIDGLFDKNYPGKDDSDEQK

B1: target 1 MT 5'PFS AGA 3'PFS UCG (mixed)
RNA 1: CACCCGUGCAAAAAUGCAGGGGUCUAAAACUGAGCGGAUAACCUCUCUAUGG
RNA 2: GGGAAUGGAUCCACAUCUACGAAUUCAGACCAUAGAGAGGUUAUCCGCUCAUCGAGAUCGGAAGAGCACACGU
B2: target 1 MT 5'PFS UCG 3'PFS AGA (mixed)
RNA 1: B1 RNA 1
RNA 2: B1 RNA 2 with A27U, G28C, A29G, U52A, C53G, G54A
B3: target 1 MT 5'PFS GUG 3'PFS GCC (mixed)
RNA 1: B1 RNA 1
RNA 2: B1 RNA 2 with A27G, G28U, A29G, U52G, G54C
B4: target 1 MT 5'PFS AGA 3'PFS UCU (mixed)
RNA 1: B1 RNA 1
RNA 2: B1 RNA 2 with G54U
B5: target 1 MT 5'PFS GUG 3'PFS GCG (mixed)
RNA 1: B1 RNA 1
RNA 2: B1 RNA 2 with A27G, G28U, A29G, U52G
B6: target 1 MT 5'PFS ACG 3'PFS CAC (mixed)
RNA 1: B1 RNA 1
RNA 2: B1 RNA 2 with G28C, A29G, U52C, C53A, G54C
B7: target 1 MT 5'PFS GUU 3'PFS CUA (mixed)
RNA 1: B1 RNA 1
RNA 2: B1 RNA 2 with A27G, G28U, A29U, U52C, C53U, G54A
B8: target 1 MT 5'PFS GUU 3'PFS CUC (mixed)
RNA 1: B1 RNA 1
RNA 2: B1 RNA 2 with A27G, G28U, A29U, U52C, C53U, G54C
B9: target 1 MT 5'PFS GUU 3'PFS CUG (mixed)
RNA 1: B1 RNA 1
RNA 2: B1 RNA 2 with A27G, G28U, A29U, U52C, C53U
B10: target 1 insA 3' of 17,insC 3' of 9 (mixed)
RNA 1: B1 RNA 1
RNA 2: GGGAAUGGAUCCACAUCUACGAAUUCGUACCAUAGAAGAGGUUACUCCGCUCACCGAGAUCGGAAGAGCACACGU
B11: target 1 C2G,G13C (mixed)
RNA 1: B1 RNA 1
RNA 2: B1 RNA 2 with A27G, G28U, G39C, C50G, U52C
B12: target 1 MT 5'PFS CCA 3'PFS CUA (mixed)
RNA 1: B1 RNA 1
RNA 2: B1 RNA 2 with A27C, G28C, U52C, C53U, G54A
B13: target 1 MT 5'PFS ACA 3'PFS UAC (mixed)
RNA 1: B1 RNA 1
RNA 2: B1 RNA 2 with G28C, C53A, G54C
B14: target 1 MT 5'PFS GUU 3'PFS CUU (mixed)
RNA 1: B1 RNA 1
RNA 2: B1 RNA 2 with A27G, G28U, A29U, U52C, C53U, G54U
B15: target 1 MT 5'PFS CAU 3'PFS CUU (mixed)
RNA 1: B1 RNA 1
RNA 2: B1 RNA 2 with A27C, G28A, A29U, U52C, C53U, G54U
B16: target 1 MT 5'PFS UAA 3'PFS UCG (mixed)
RNA 1: B1 RNA 1
RNA 2: B1 RNA 2 with A27U, G28A
B17: target 1 MT 5'PFS CCU 3'PFS AAU (mixed)
RNA 1: B1 RNA 1
RNA 2: B1 RNA 2 with A27C, G28C, A29U, U52A, C53A, G54U
B18: target 1 MT 5'PFS GUG 3'PFS AAA (mixed)
RNA 1: B1 RNA 1
RNA 2: B1 RNA 2 with A27G, G28U, A29G, U52A, C53A, G54A
B19: target 1 MT 5'PFS GUG 3'PFS AAC (mixed)
RNA 1: B1 RNA 1
RNA 2: B1 RNA 2 with A27G, G28U, A29G, U52A, C53A, G54C
B20: target 1 MT 5'PFS GUG 3'PFS AAG (mixed)
RNA 1: B1 RNA 1
RNA 2: B1 RNA 2 with A27G, G28U, A29G, U52A, C53A
B21: target 1 MT 5'PFS GUG 3'PFS AAU (mixed)
RNA 1: B1 RNA 1
RNA 2: B1 RNA 2 with A27G, G28U, A29G, U52A, C53A, G54U
B22: target 1 G15C,A16U (mixed)
RNA 1: B1 RNA 1
RNA 2: B1 RNA 2 with A27G, G28U, A36U, G37C, U52C
B23: target 1 MT 5'PFS GGA 3'PFS CUA (mixed)
RNA 1: B1 RNA 1
RNA 2: B1 RNA 2 with A27G, U52C, C53U, G54A
B24: target 1 MT 5'PFS CAG 3'PFS CGU (mixed)
RNA 1: B1 RNA 1
RNA 2: B1 RNA 2 with A27C, G28A, A29G, U52C, C53G, G54U
B25: target 1 MT 5'PFS GGA 3'PFS CUC (mixed)
RNA 1: B1 RNA 1
RNA 2: B1 RNA 2 with A27G, U52C, C53U, G54C
B26: target 1 MT 5'PFS AGG 3'PFS UUC (mixed)
RNA 1: B1 RNA 1
RNA 2: B1 RNA 2 with A29G, C53U, G54C
B27: target 1 MT 5'PFS AGG 3'PFS UUG (mixed)
RNA 1: B1 RNA 1
RNA 2: B1 RNA 2 with A29G, C53U
B28: target 1 MT 5'PFS GAC 3'PFS UUU (mixed)
RNA 1: B1 RNA 1
RNA 2: B1 RNA 2 with A27G, G28A, A29C, C53U, G54U
B29: target 1 MT 5'PFS GGA 3'PFS UCG (mixed)
RNA 1: B1 RNA 1
RNA 2: B1 RNA 2 with A27G
B30: target 1 MT 5'PFS GGA 3'PFS UCC (mixed)
RNA 1: B1 RNA 1
RNA 2: B1 RNA 2 with A27G, G54C
B31: target 1 MT 5'PFS GGA 3'PFS UCA (mixed)
RNA 1: B1 RNA 1
RNA 2: B1 RNA 2 with A27G, G54A
B32: target 1 MT 5'PFS GAC 3'PFS UUG (mixed)
RNA 1: B1 RNA 1
RNA 2: B1 RNA 2 with A27G, G28A, A29C, C53U
B33: target 1 insG 3' of 10,insA 3' of 7 (mixed)
RNA 1: B1 RNA 1
RNA 2: B10 RNA 2 with A37G, G38A, A39G, G41U, U43G, C45U, U46C, C47A
B34: target 1 MT 5'PFS CAA 3'PFS UCG (mixed)
RNA 1: B1 RNA 1
RNA 2: B1 RNA 2 with A27C, G28A
B35: target 1 MT 5'PFS GAC 3'PFS UUC (mixed)
RNA 1: B1 RNA 1
RNA 2: B1 RNA 2 with A27G, G28A, A29C, C53U, G54C
B36: target 1 MT 5'PFS GAC 3'PFS UUA (mixed)
RNA 1: B1 RNA 1
RNA 2: B1 RNA 2 with A27G, G28A, A29C, C53U, G54A
B37: target 1 MT 5'PFS GGA 3'PFS UCU (mixed)
RNA 1: B1 RNA 1
RNA 2: B1 RNA 2 with A27G, G54U
B38: target 1 MT 5'PFS GCU 3'PFS UUA (mixed)
RNA 1: B1 RNA 1
RNA 2: B1 RNA 2 with A27G, G28C, A29U, C53U, G54A
B39: target 1 MT 5'PFS GCU 3'PFS UUC (mixed)
RNA 1: B1 RNA 1
RNA 2: B1 RNA 2 with A27G, G28C, A29U, C53U, G54C
B40: target 1 MT 5'PFS GCU 3'PFS UUG (mixed)
RNA 1: B1 RNA 1
RNA 2: B1 RNA 2 with A27G, G28C, A29U, C53U

Biological target: T1, EsCas13d, nuclease-dead
Test: crRNA (strand 1, pre-loaded); Mg2+; 40 mM Tris-HCl pH 7.5, 150 mM NaCl, 6 mM MgCl2, 1 mM DTT, 0.1% Tween-20, 0.2 mg/ml BSA; 25 C; 10 min per concentration, then washed
Conditions: tags: His6-TwinStrep-SUMO cleaved; N-terminal SNAP kept (SNAP-Surface 488); label: 3' end held by stalled T7 RNA polymerase

**Q.** How did the Kd turn out when B1 was run?
**A.** 47 ± 17.5 nM

**Q.** B2 was tested. Which Kd did it give?
**A.** 39 ± 11 nM

**Q.** B3 was tested. Which Kd did it give?
**A.** 12.7 ± 1.6 nM

**Q.** For B4, which Kd is on record?
**A.** 42 ± 15.5 nM

**Q.** How did the Kd turn out when B5 was run?
**A.** 14.4 ± 2 nM

**Q.** With B6 as the binder, how does the Kd read?
**A.** ~36 nM

**Q.** For B7, which Kd is on record?
**A.** 17.6 ± 3.25 nM

**Q.** B8 was tested. Which Kd did it give?
**A.** 21.5 ± 4 nM

**Q.** For B9, which Kd is on record?
**A.** 12.8 ± 1.4 nM

**Q.** With B10 as the binder, how does the Kd read?
**A.** 12.3 ± 0.6 nM

**Q.** How did the Kd turn out when B11 was run?
**A.** 47 ± 3.5 nM

**Q.** B12 was tested. Which Kd did it give?
**A.** 2.5 ± 0.8 nM

**Q.** How did the Kd turn out when B13 was run?
**A.** 25.5 ± 11 nM

**Q.** With B14 as the binder, how does the Kd read?
**A.** 16.4 ± 3.1 nM

**Q.** B15 was tested. Which Kd did it give?
**A.** ~48.5 nM

**Q.** Which Kd does the source give for B16 here?
**A.** 23 ± 6.5 nM

**Q.** Which Kd does the source give for B17 here?
**A.** 16.7 ± 4.65 nM

**Q.** For B18, which Kd is on record?
**A.** 30.3 ± 2.5 nM

**Q.** With B19 as the binder, how does the Kd read?
**A.** 23.9 ± 2.9 nM

**Q.** With B20 as the binder, how does the Kd read?
**A.** 23.1 ± 1.45 nM

**Q.** With B21 as the binder, how does the Kd read?
**A.** 22.1 ± 1.75 nM

**Q.** With B22 as the binder, how does the Kd read?
**A.** 47 ± 4 nM

**Q.** With B23 as the binder, how does the Kd read?
**A.** 27 ± 6.5 nM

**Q.** Which Kd does the source give for B24 here?
**A.** 29.5 ± 10 nM

**Q.** Which Kd does the source give for B25 here?
**A.** 47 ± 17.5 nM

**Q.** How did the Kd turn out when B26 was run?
**A.** 33 ± 11 nM

**Q.** With B27 as the binder, how does the Kd read?
**A.** 40.5 ± 9.5 nM

**Q.** With B28 as the binder, how does the Kd read?
**A.** 11 ± 4.5 nM

**Q.** B29 was tested. Which Kd did it give?
**A.** 10.8 ± 1.2 nM

**Q.** Which Kd does the source give for B30 here?
**A.** 23 ± 7 nM

**Q.** For B31, which Kd is on record?
**A.** 17.9 ± 5.7 nM

**Q.** With B32 as the binder, how does the Kd read?
**A.** 14.5 ± 4 nM

**Q.** How did the Kd turn out when B33 was run?
**A.** 15.3 ± 0.6 nM

**Q.** With B34 as the binder, how does the Kd read?
**A.** 12.2 ± 3.6 nM

**Q.** How did the Kd turn out when B35 was run?
**A.** 14.1 ± 4.25 nM

**Q.** For B36, which Kd is on record?
**A.** 13.2 ± 4.3 nM

**Q.** With B37 as the binder, how does the Kd read?
**A.** 13.5 ± 2.5 nM

**Q.** For B38, which Kd is on record?
**A.** 22 ± 5 nM

**Q.** For B39, which Kd is on record?
**A.** 36.5 ± 9 nM

**Q.** B40 was tested. Which Kd did it give?
**A.** 61 ± 23.5 nM

From article PMC10786891, “Massively parallel profiling of RNA-targeting CRISPR-Cas13d”
